Source: the RNAGym collection of RNA variant scans (doi:10.1073/pnas.2313332121)

B1: TPR t1 (parent)
chain: GACCAAUCUGCCCUCAGAGCUCGAGAACAUCUUCGGAUGCAGAGGAGGCAGGCUUCGGUGGCGCGAUAGCGCCAACGUCCUCAACCUCCAAUGCAUCCCACCACAUGAUGAUGCCUGAAGAGCCUUGGUUUUUUG

Variants of: B1
Test: polymerase ribozyme fitness, log enrichment relative to wild type (log ratio); higher = more active; in vitro selection for triplet polymerase activity
Outline: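 Fitness compares each genotype's enrichment to that of the wild type on a logarithmic scale, averaging replicates with inverse-variance weights. The logarithm is base 2. Enrichment came from Illumina sequencing of input and output libraries after one triplicate round of in vitro selection, which included frozen incubation at −7 °C, of PCR-built, transcribed mutant libraries of each subunit of a heterodimeric triplet polymerase ribozyme. Only genotypes with ≥10 input reads and ≥1 read per output were kept.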

Row | Variant | polymerase ribozyme fitness (log ratio)
1 | A50C A91G C124A U133A | 1.25
2 | C49A A66G C73U | -1.61
3 | C49A U81C U129G | -3.78
4 | G47U U55C C56A C73G | -4.04
5 | C49A A74C C94U U116A | -3.09
6 | C49U C82A U87C U96A | -1.66
7 | G48C A84G C85G C115A G127U | -4.98
8 | G48A G61C | -1.66
9 | C49U U78C | -1
10 | C49U G61C G71A A95G G113U | -7.48
11 | G48A U130G | -1.37
12 | G48A U130C | -0.486
13 | A50C U116C | -1.32
14 | G48U A100C A105C C123U | -4.99
15 | G48U G57A G58A | -0.738
16 | C49A C53A C79A C85U A111C | -2.83
17 | G48C A74U | -0.843
18 | C49G A90C | -3.22
19 | A50C G69A U78C C97U | -4.07
20 | C49U G58C | -0.728
21 | A50G C80G A83G G120C | -6.33

Row | Variant | polymerase ribozyme fitness (log ratio)
22 | G48A C70A | -2.36
23 | G48U C70U C114A | -2.21
24 | G48A C73U C85A | -1.26
25 | G48U U59G C72U C94G | -1.86
26 | G48C A50G C102A | -3.21
27 | G48C A83C A90C G110A | -3.46
28 | C49U A91C C123A | -1.62
29 | G48C A83U A111C A118C | -0.0367
30 | C49G G60C | -1.97
31 | G48C C101U U112C | 0.0907
32 | C49A C73U G120U | -0.216
33 | G48A G69U C72U U126G G128A U132A | -2.53
34 | G48A C64U | 0.0683
35 | G48A C64A | -6.92
36 | G48C C49A | -2.13
37 | G48C C49G | -0.655
38 | C49A C88G G120C | 0.68
39 | C49U G63A | -1.67
40 | A50G G93C U109A G117C | -6.26
41 | G48U C72G G122A | -2.3
42 | A50G C85G | -0.79

Row | Variant | polymerase ribozyme fitness (log ratio)
43 | C49G A90U G117A | -3.8
44 | G48C G57A | -0.626
45 | G48C G51C G57U | -2.77
46 | G48C G51U C53U | -4.86
47 | A50G C123A | 0.295
48 | C49U G69U U78C U81A C114G G117U G127U | -5.33
49 | G48U C56G C72A C94A G110C | -5.78
50 | G48C C73U | -0.559
51 | A50C C123A | -0.166
52 | G48U U55C | -1.53
53 | G48U C76G G110A G127A | -2.63
54 | G48C G128C | -2.75
55 | C49U A103C U112C | -3.22
56 | C49G G63A U78A C99A | -8.17
57 | G48U C56G C101U C114G | -4.75
58 | A50G G110U | -0.639
59 | G48U A105U | -2.27
60 | G48U A105C | -2.86
61 | C49U A74C | -0.435
62 | G48U A118G U125G | -2.75
63 | G48U A50U A68G C89G U106A U116C C124U | -5.48

Row | Variant | polymerase ribozyme fitness (log ratio)
64 | A50C C89U | -1.06
65 | G48A A100U | -1.19
66 | C49A C70U C82A C104U A105U C123G G135U | -5.46
67 | C49G C99U G127U | -4.66
68 | C49U A50U A95G U96A A111G | -7.1
69 | C49U G69U C80A | -3.24
70 | G48U G60U G61A A83G U129G | -3.05
71 | G48U C56A U92A | -4.35
72 | C49G A83G C88A C102U G120C | -5.33
73 | C49G C101A C124U | 0.417
74 | G48C C64U | -1.12
75 | G48A C62U C115U | -3.7
76 | G47U U126G | -3.77
77 | C49U A121C | 1.39
78 | C49G G120U U132A | -0.00759
79 | C49G G51U | -3.2
80 | C49U C72G C89U | -1.07
81 | C49G C56U | -0.51
82 | C49G C56G | -2.98
83 | C49A C101G | -2.23
84 | G48U C56A C114G G127C | -5.92
